Results taken from the supplement of paper PMC10567573.
± gives the standard deviation.

Experiment: protein stability index of a GFP-peptide fusion (GPS, HEK-293T) (PSI 1-6); higher = more stable
[1] = treatment: DMSO, c terminus: a fixed tail appended
[2] = treatment: MLN4924 1 uM, 8 h, c terminus: a fixed tail appended
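Further: 24-mer peptide tiles fused after GFP, lentivirally expressed, FACS-sorted into six equal bins by GFP/DsRed ratio, decoded by Illumina sequencing, PSI is the read-weighted mean bin number.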

VQETNKQPPQTVNPIGHLPESLTK [ATF4]
protein stability index [1]: 4.79 ± 0.24
protein stability index [2]: 4.86 ± 0.2

WVGFDDVESFKTKVSYLKQKGLGG [CHIT1]
protein stability index [1]: 2.36 ± 0.33
protein stability index [2]: 2.69 ± 0.36

PWEPPVLPILTWPVLQSRTGLVYD [HDAC6]
protein stability index [1]: 3.46 ± 0.51
protein stability index [2]: 3.35 ± 0.23

HTVPDFHLSSPAKNFFKKAAAALF [PLK2]
protein stability index [1]: 2.74 ± 0.96
protein stability index [2]: 2.65 ± 0.73

LVQVTLLDTVELATYCVRTFALYK [PTPRD]
protein stability index [1]: 3.1 ± 0.49
protein stability index [2]: 2.97 ± 0.81

LLMLENFIDGKFLPCSSYIDSYDP [ALDH8A1]
protein stability index [1]: 1.97 ± 0.65
protein stability index [2]: 2.05 ± 0.56

RSLSACNKRVGMYLEGFDPFNQST [DLC1]
protein stability index [1]: 2.85 ± 0.39
protein stability index [2]: 2.81 ± 0.5

PPWKEAFRQRCLERMRNSRDRLLN [RPAIN]
protein stability index [1]: 2.66 ± 0.18
protein stability index [2]: 2.75 ± 0.33

NGTYAGPAPAFQPFFFTGAFPFNM [ANKRD40]
protein stability index [1]: 2.32 ± 1.2
protein stability index [2]: 2.51 ± 0.5

RLNGTAKGERRREPGGYDSSSTLM [DVL3]
protein stability index [1]: 3.62 ± 0.13
protein stability index [2]: 4.01 ± 0.31

GFVDLLDGENLKNEEETPSCMASL [CDC25A]
protein stability index [1]: 4.64 ± 0.25
protein stability index [2]: 4.62 ± 0.13

QIMFDVEMHTSRDHSSQSEEEVVE [BNIP3L]
protein stability index [1]: 5.33 ± 0.063
protein stability index [2]: 5.37 ± 0.22

TPEELTILGETQEEEDEILPRKDY [CLCN6]
protein stability index [1]: 5.51 ± 0.13
protein stability index [2]: 5.54 ± 0.21

LNVELDPEIQKVRAQEREQIKALN [KRT71]
protein stability index [1]: 4.74 ± 0.13
protein stability index [2]: 4.75 ± 0.11

QCKEWQVLMCGFPFLLLFLGNFFT [TMEM120A]
protein stability index [1]: 2.81 ± 0.053
protein stability index [2]: 2.92 ± 0.53

TTPLSPTRLSRLQEKEELRELNDR [LMNB1]
protein stability index [1]: 5.18 ± 0.39
protein stability index [2]: 5.1 ± 0.18

AFMNQEITKAFHVRKANRIKECLS [RHOBTB1]
protein stability index [1]: 2.41 ± 0.18
protein stability index [2]: 2.53 ± 0.33

LLAAQVQLQCSPAELQAELLHSQA [FBF1]
protein stability index [1]: 2.56 ± 0.26
protein stability index [2]: 2.42 ± 0.45

ITATSLLGTRESDTEVITVEKSSP [BCL2L13]
protein stability index [1]: 4.91 ± 0.19
protein stability index [2]: 5.01 ± 0.16

SQVALKIIRNVGKYREAARLEINV [CLK3]
protein stability index [1]: 2.67 ± 0.51
protein stability index [2]: 2.62 ± 0.54

AGALLRLPSERLDFSMAEALNQEF [PRPH]
protein stability index [1]: 3.32 ± 0.3
protein stability index [2]: 3.52 ± 0.35

LCQKSNDISIHHFTCDEENVFAAV [WDR41]
protein stability index [1]: 2.84 ± 0.18
protein stability index [2]: 2.91 ± 0.31

HFHRTLKEACDQHGPDLYPKFKKW [CPOX]
protein stability index [1]: 2.49 ± 0.21
protein stability index [2]: 2.75 ± 0.14

LMDVTGGPFDLMSRRVIAANNRIL [IMPA1]
protein stability index [1]: 2.75 ± 0.17
protein stability index [2]: 2.69 ± 0.2

HLSPLVVHRQLSHLYAEPQKSPWC [ESR2]
protein stability index [1]: 2.51 ± 0.36
protein stability index [2]: 2.79 ± 0.36

SQDEPIALDKQHSRDSAAITHSTY [NOL4L]
protein stability index [1]: 5.01 ± 0.22
protein stability index [2]: 5.08 ± 0.16

LSALDSKANNLSSLSKKYRQDAKY [SEC22B]
protein stability index [1]: 3.87 ± 0.19
protein stability index [2]: 3.98 ± 0.3

ARAFAEKNNLSFIETSALDSTNVE [RAB11B]
protein stability index [1]: 4.51 ± 0.15
protein stability index [2]: 4.54 ± 0.13

YLEKYYNLKNDGRQVEKRRNSGPV [MMP1]
protein stability index [1]: 2.68 ± 0.57
protein stability index [2]: 3.27 ± 0.4

ATPGEYSVNICGMNEHPVCSRTWT [SPAG8]
protein stability index [1]: 2.44 ± 0.28
protein stability index [2]: 2.57 ± 0.39

HYGNIMYDRRVIRGNTYALQTGPL [RSPH3]
protein stability index [1]: 2.33 ± 0.1
protein stability index [2]: 2.13 ± 0.32

EGSIWRGAQMEKEWARALETRDWG [ZSWIM9]
protein stability index [1]: 3.37 ± 0.3
protein stability index [2]: 3.42 ± 0.21

SLEESVGKPLYLIFRNLCQMQEDN [INTS3]
protein stability index [1]: 2.45 ± 0.45
protein stability index [2]: 2.46 ± 0.22

KEAGLSQSHDDLSNATATPSVRKK [C2CD2L]
protein stability index [1]: 5.44 ± 0.19
protein stability index [2]: 5.53 ± 0.28

SDKEIVAEAERLDVKAMGPLVLTE [EIF5]
protein stability index [1]: 5.08 ± 0.054
protein stability index [2]: 5.23 ± 0.31

KPARKRRRRSRKKPSGALGSESYK [EHMT1]
protein stability index [1]: 5.11 ± 0.27
protein stability index [2]: 5.28 ± 0.14

DSSCSGQPIHLWQFLKELLLKPHS [SPDEF]
protein stability index [1]: 2.47 ± 0.21
protein stability index [2]: 2.46 ± 0.16

LPLAYQQTSAFARQPRDELERVRV [TMEM175]
protein stability index [1]: 4.01 ± 0.35
protein stability index [2]: 4.1 ± 0.27

YFTWDEVAQRSGCEERWLVIDRKV [FADS1]
protein stability index [1]: 2.65 ± 0.17
protein stability index [2]: 2.82 ± 0.27

WKPPDIKGKLMVCYETLPRGQCLL [SPAG8]
protein stability index [1]: 2.27 ± 0.4
protein stability index [2]: 2.32 ± 0.41

NKTGVSPYSKTLVLQTSEGKALQQ [TRIM9]
protein stability index [1]: 4.19 ± 0.14
protein stability index [2]: 4.22 ± 0.073

KLAQALHEMREQHDAQVRLYKEEL [LMNB1]
protein stability index [1]: 2.66 ± 0.3
protein stability index [2]: 2.7 ± 0.22

GYGGSRDSYSSSRSDLYSSGRDRV [RBMX]
protein stability index [1]: 3.828 ± 0.029
protein stability index [2]: 3.99 ± 0.37

KKWQQYRSVRRERLKEMKLLRDQF [FAM9B]
protein stability index [1]: 2.59 ± 0.27
protein stability index [2]: 2.71 ± 0.2

ITSSIPDTERLDDFHLSIHSDMAA [DVL3]
protein stability index [1]: 4.08 ± 0.22
protein stability index [2]: 4.3 ± 0.17

VPRYTGVAPQDQCKLTCQAQALGY [ADAMTS4]
protein stability index [1]: 2.4 ± 0.47
protein stability index [2]: 2.65 ± 0.36

GGFMGYSAENIPGCSSSGSCSQGS [CRY1]
protein stability index [1]: 4.14 ± 0.3
protein stability index [2]: 4.4 ± 0.28

MEEVISPRQVSYTPQHHEKQYAMQ [IQUB]
protein stability index [1]: 4.38 ± 0.15
protein stability index [2]: 4.31 ± 0.29

AGDGDTSNFETYPENDWDTAAPVP [PRKX]
protein stability index [1]: 5.33 ± 0.33
protein stability index [2]: 5.14 ± 0.32

KNGRVDSEDRRSRHCPYLDTINRS [USP39]
protein stability index [1]: 3.99 ± 0.26
protein stability index [2]: 4.2 ± 0.34

LVLAIPLLLILVSYVHILSAILQF [OR10K2]
protein stability index [1]: 3.37 ± 0.14
protein stability index [2]: 3.17 ± 0.28

MDRKTRFIIHGFIDKGDESWVTDM [PNLIPRP1]
protein stability index [1]: 2.48 ± 0.66
protein stability index [2]: 2.51 ± 0.19

SIPRHFALSGKYSREFFNRRGELR [SRPK2]
protein stability index [1]: 2.74 ± 0.46
protein stability index [2]: 2.8 ± 0.46

DPEVLEAVGDRQDGLREQLQAPVP [PBXIP1]
protein stability index [1]: 5.43 ± 0.27
protein stability index [2]: 5.4 ± 0.24

QPSFEPTKNKELTDEFRELRATVE [FADS1]
protein stability index [1]: 4.98 ± 0.19
protein stability index [2]: 4.86 ± 0.35

ENAPIGTLLLRLNATDPDEGTNGQ [PCDHGC5]
protein stability index [1]: 4.95 ± 0.15
protein stability index [2]: 4.92 ± 0.18

FDPAEKYKMDHRRRGIALIFNHER [CASP6]
protein stability index [1]: 2.89 ± 0.2
protein stability index [2]: 3.19 ± 0.39

PGRLTEALCLEVRPTYFEMKNEKL [RNF180]
protein stability index [1]: 4.9 ± 0.21
protein stability index [2]: 4.9 ± 0.15

RFHRARWGLEEEDFQPREEAMLYH [P3H4]
protein stability index [1]: 2.93 ± 0.11
protein stability index [2]: 2.9 ± 0.13

AYQQGVGYQMLGNVVTIGLAFFPF [PHTF1]
protein stability index [1]: 2.93 ± 0.39
protein stability index [2]: 3.13 ± 0.067

IVKQQDPLVYKAIQQGINAVNQEA [ACSBG2]
protein stability index [1]: 3.75 ± 0.11
protein stability index [2]: 3.82 ± 0.12

CEETGELFEEPAPQALATRALPCP [FCHSD1]
protein stability index [1]: 4.95 ± 0.2
protein stability index [2]: 4.9 ± 0.24

TPEKKAEEERDEEEDKRRKGEEVT [EPB41L3]
protein stability index [1]: 5.74 ± 0.29
protein stability index [2]: 5.75 ± 0.27

IVITGDADIDHDQALAQAIKEAKE [EPB41L3]
protein stability index [1]: 2.85 ± 0.58
protein stability index [2]: 3.45 ± 0.48

RNGSERVVTSAREHIYDLRSLENY [CLINT1]
protein stability index [1]: 3.5 ± 0.16
protein stability index [2]: 3.81 ± 0.25

CTNIFYEEENPGGCEDEYLVNPTC [ZER1]
protein stability index [1]: 4.31 ± 0.2
protein stability index [2]: 4.36 ± 0.33

RSIFGNAVSRELIEIGCEDKTLAF [MLH1]
protein stability index [2]: 2.97 ± 0.41

KKAQGKTQQNRKLTDFYPVRRSSR [KMT5A]
protein stability index [1]: 3.29 ± 0.54
protein stability index [2]: 3.86 ± 0.39

KAEGGEEDSLGCLTADTKEVTASQ [IRX6]
protein stability index [1]: 5.49 ± 0.22
protein stability index [2]: 5.48 ± 0.24

LLHLHQTAHADEFDCPSELQHTQE [STEAP1]
protein stability index [1]: 4.66 ± 0.11
protein stability index [2]: 4.78 ± 0.11

TCSICRRNFSRRSSLLRHQKLHL [ZNF75A]
protein stability index (treatment: DMSO, c terminus: native): 3.65 ± 0.23
protein stability index (treatment: MLN4924 1 uM, 8 h, c terminus: native): 4.06 ± 0.43

ALLKFREDEGFVREEEDRALPENE [KCNA4]
protein stability index [1]: 5.31 ± 0.32
protein stability index [2]: 5.43 ± 0.19

TFALYKNGSSEKREVRQFQFTAWP [PTPRD]
protein stability index [1]: 2.29 ± 0.22
protein stability index [2]: 2.46 ± 0.18

GGGYSSVRYSDCCERVVINVSGLR [KCNA4]
protein stability index [1]: 2.23 ± 0.26
protein stability index [2]: 2.34 ± 0.29

DPGPEPEEEPGVRNGMASEGLNSS [PSD2]
protein stability index [1]: 5.58 ± 0.25
protein stability index [2]: 5.44 ± 0.35

KSPLHMTAVHGRFTRSQTLIQNGG [ANKRD44]
protein stability index [1]: 3.28 ± 0.24
protein stability index [2]: 3.45 ± 0.18

HLKRHFMFRNHLCLVFELLSYNLY [DYRK1B]
protein stability index [1]: 3.34 ± 0.23
protein stability index [2]: 3.29 ± 0.88

KIRKIHTQRQYKEDESQSEEENDY [CEP70]
protein stability index [1]: 5.14 ± 0.21
protein stability index [2]: 5.16 ± 0.18

VHVISLHIWELSSIKNSLKVAAIS [PTGFR]
protein stability index [1]: 2.86 ± 0.46
protein stability index [2]: 3.07 ± 0.32

KTIDLGAAAHYTGDKASPDQNAST [CLINT1]
protein stability index [1]: 5.26 ± 0.31
protein stability index [2]: 5.41 ± 0.49

AAALDYEADGSTNNGIFQINSRRW [SPACA3]
protein stability index [1]: 3.64 ± 0.46
protein stability index [2]: 3.76 ± 0.35

SILNAKAPALPPGGTDPHGYHQVP [FOXJ1]
protein stability index [1]: 3.6 ± 0.2
protein stability index [2]: 3.66 ± 0.14

LENSKYCRFNQDPEAVDEDRSTEP [ATE1]
protein stability index [1]: 5.5 ± 0.24
protein stability index [2]: 5.29 ± 0.45

SGFVGSGGWFCEGSFNGSEKETMQ [KRT36]
protein stability index [1]: 3.87 ± 0.36
protein stability index [2]: 3.65 ± 0.19

PMMKAAMYSVEITVEKDKVTGETR [PALM]
protein stability index [1]: 4.16 ± 0.33
protein stability index [2]: 4.29 ± 0.14

DSTNVEAAFQTILTEIYRIVSQKQ [RAB11A]
protein stability index [1]: 2.26 ± 0.35
protein stability index [2]: 2.46 ± 0.034

LGVAQRSLPLQDELAFAEDLVLDE [ESRRA]
protein stability index [1]: 3.38 ± 0.65
protein stability index [2]: 3.93 ± 0.71

RKGCLRFQLPERGSRLCLYEDGTE [DFFB]
protein stability index [1]: 3.34 ± 0.39
protein stability index [2]: 3.47 ± 0.21

GKFIRLKNTSEQDQPMGGWEMIRK [LMNB1]
protein stability index [1]: 3.73 ± 0.083
protein stability index [2]: 3.7 ± 0.2
